Reference: the supplement of paper PMC5998384

Tests used:
HeLa Kyoto [1] = assay: solubility change mitosis vs G1/S (difference of NP-40 vs SDS log2 ratios) (log2 ratio difference); higher = more soluble in mitosis
HeLa Kyoto [2] = assay: thermal stability score vs G1/S (z-score of summed log2 fold changes over temperatures); higher = more thermally stable than in G1/S
HeLa Kyoto [3] = assay: solubility in G1/S (NP-40 vs SDS abundance) (log2 ratio); higher = more soluble; conditions: cell cycle stage: G1/S
HeLa Kyoto [4] = assay: melting temperature (median over replicates), in situ; higher = more thermally stable
[5] = cell cycle stage: early G1 (4.5 h after nocodazole release)
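For melting temperature (median over replicates), in situ in this document: HeLa Kyoto cells synchronized by double thymidine or nocodazole block, proteins quantified by TMT10plex mass spectrometry, three independent biological replicates.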
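For solubility change mitosis vs G1/S (difference of NP-40 vs SDS log2 ratios) in this document: synchronized HeLa Kyoto cells (double thymidine block for G1/S, nocodazole release for mitosis), protein amounts in NP-40 versus SDS lysates quantified by mass spectrometry, three biological replicates.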
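For solubility in G1/S (NP-40 vs SDS abundance) in this document: HeLa Kyoto cells arrested at G1/S by double thymidine block, proteins quantified by TMT10plex mass spectrometry in mild NP-40 versus SDS extracts, three biological replicates.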
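For thermal stability score vs G1/S (z-score of summed log2 fold changes over temperatures) in this document: synchronized HeLa Kyoto cells, proteins quantified by TMT10plex mass spectrometry, three biological replicates, mitosis taken 0.5 h after nocodazole release, G1/S directly after double thymidine block.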

Sequence of STK38L (chain, as listed by the source): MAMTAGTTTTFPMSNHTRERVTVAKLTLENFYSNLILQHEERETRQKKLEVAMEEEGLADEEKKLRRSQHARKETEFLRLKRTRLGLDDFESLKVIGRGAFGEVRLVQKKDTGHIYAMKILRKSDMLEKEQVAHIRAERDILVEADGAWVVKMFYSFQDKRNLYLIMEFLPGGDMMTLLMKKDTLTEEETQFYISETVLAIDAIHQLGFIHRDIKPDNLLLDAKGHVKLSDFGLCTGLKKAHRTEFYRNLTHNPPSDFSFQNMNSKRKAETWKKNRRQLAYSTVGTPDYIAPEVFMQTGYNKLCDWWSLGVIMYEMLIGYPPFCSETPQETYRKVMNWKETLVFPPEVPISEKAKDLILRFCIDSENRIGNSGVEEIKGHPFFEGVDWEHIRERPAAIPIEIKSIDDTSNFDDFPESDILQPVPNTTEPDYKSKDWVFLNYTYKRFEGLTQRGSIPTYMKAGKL

| Substance | solubility change mitosis (log2) (HeLa Kyoto [1]) | thermal stability score (HeLa Kyoto [2]; [5]) | thermal stability score (HeLa Kyoto [2]; cell cycle stage: mitosis) | solubility in G1/S (log2) (HeLa Kyoto [3]) | melting temperature (HeLa Kyoto [4]; cell cycle stage: G1/S) [°C] | melting temperature (HeLa Kyoto [4]; cell cycle stage: mitosis) [°C] |
| --- | --- | --- | --- | --- | --- | --- |
| MTGSNSHITILTLKVLPHFESLGKQEKIPNKMSAFRNHCPHLDSVGEITKEDLIQKSLGTCQDCKVQGPNLWACLENRCSYVGCGESQVDHSTIHSQETKHYLTVNLTTLRVWCYACSKEVFLDRKLGTQPSLPHVRQPHQIQENSVQDFKIPSNTTLKTPLVAVFDDLDIEADEEDELRARGLTGLKNIGNTCYMNAALQALSNCPPLTQFFLDCGGLARTDKKPAICKSYLKLMTELWHKSRPGSVVPTTLFQGIKTVNPTFRGYSQQDAQEFLRCLMDLLHEELKEQVMEVEEDPQTITTEETMEEDKSQSDVDFQSCESCSNSDRAENENGSRCFSEDNNETTMLIQDDENNSEMSKDWQKEKMCNKINKVNSEGEFDKDRDSISETVDLNNQETVKVQIHSRASEYITDVHSNDLSTPQILPSNEGVNPRLSASPPKSGNLWPGLAPPHKKAQSASPKRKKQHKKYRSVISDIFDGTIISSVQCLTCDRVSVTLETFQDLSLPIPGKEDLAKLHSSSHPTSIVKAGSCGEAYAPQGWIAFFMEYVKRFVVSCVPSWFWGPVVTLQDCLAAFFARDELKGDNMYSCEKCKKLRNGVKFCKVQNFPEILCIHLKRFRHELMFSTKISTHVSFPLEGLDLQPFLAKDSPAQIVTYDLLSVICHHGTASSGHYIAYCRNNLNNLWYEFDDQSVTEVSESTVQNAEAYVLFYRKSSEEAQKERRRISNLLNIMEPSLLQFYISRQWLNKFKTFAEPGPISNNDFLCIHGGVPPRKAGYIEDLVLMLPQNIWDNLYSRYGGGPAVNHLYICHTCQIEAEKIEKRRKTELEIFIRLNRAFQKEDSPATFYCISMQWFREWESFVKGKDGDPPGPIDNTKIAVTKCGNVMLRQGADSGQISEETWNFLQSIYGGGPEVILRPPVVHVDPDILQAEEKIEVETRSL [USP33] | -0.00182 | 1.09 | 2.47 | -0.427 | 51.5 | 51 |
| MLSSTDFTFASWELVVRVDHPNEEQQKDVTLRVSGDLHVGGVMLKLVEQINISQDWSDFALWWEQKHCWLLKTHWTLDKYGVQADAKLLFTPQHKMLRLRLPNLKMVRLRVSFSAVVFKAVSDICKILNIRRSEELSLLKPSGDYFKKKKKKDKNNKEPIIEDILNLESSPTASGSSVSPGLYSKTMTPIYDPINGTPASSTMTWFSDSPLTEQNCSILAFSQPPQSPEALADMYQPRSLVDKAKLNAGWLDSSRSLMEQGIQEDEQLLLRFKYYSFFDLNPKYDAVRINQLYEQARWAILLEEIDCTEEEMLIFAALQYHISKLSLSAETQDFAGESEVDEIEAALSNLEVTLEGGKADSLLEDITDIPKLADNLKLFRPKKLLPKAFKQYWFIFKDTSIAYFKNKELEQGEPLEKLNLRGCEVVPDVNVAGRKFGIKLLIPVADGMNEMYLRCDHENQYAQWMAACMLASKGKTMADSSYQPEVLNILSFLRMKNRNSASQVASSLENMDMNPECFVSPRCAKRHKSKQLAARILEAHQNVAQMPLVEAKLRFIQAWQSLPEFGLTYYLVRFKGSKKDDILGVSYNRLIKIDAATGIPVTTWRFTNIKQWNVNWETRQVVIEFDQNVFTAFTCLSADCKIVHEYIGGYIFLSTRSKDQNETLDEDLFHKLTGGQD [FERMT1] | -0.199 | -0.277 | -0.501 | -0.0778 | 50.2 | 49.8 |
| MDMGNQHPSISRLQEIQKEVKSVEQQVIGFSGLSDDKNYKKLERILTKQLFEIDSVDTEGKGDIQQARKRAAQETERLLKELEQNANHPHRIEIQNIFEEAQSLVREKIVPFYNGGNCVTDEFEEGIQDIILRLTHVKTGGKISLRKARYHTLTKICAVQEIIEDCMKKQPSLPLSEDAHPSVAKINFVMCEVNKARGVLIALLMGVNNNETCRHLSCVLSGLIADLDALDVCGRTEIRNYRREVVEDINKLLKYLDLEEEADTTKAFDLRQNHSILKIEKVLKRMREIKNELLQAQNPSELYLSSKTELQGLIGQLDEVSLEKNPCIREARRRAVIEVQTLITYIDLKEALEKRKLFACEEHPSHKAVWNVLGNLSEIQGEVLSFDGNRTDKNYIRLEELLTKQLLALDAVDPQGEEKCKAARKQAVRLAQNILSYLDLKSDEWEY [BAG5] | -0.166 | 1.27 | 1.14 | 0.621 | 49.6 | 50.4 |
| MAGKKNVLSSLAVYAEDSEPESDGEAGIEAVGSAAEEKGGLVSDAYGEDDFSRLGGDEDGYEEEEDENSRQSEDDDSETEKPEADDPKDNTEAEKRDPQELVASFSERVRNMSPDEIKIPPEPPGRCSNHLQDKIQKLYERKIKEGMDMNYIIQRKKEFRNPSIYEKLIQFCAIDELGTNYPKDMFDPHGWSEDSYYEALAKAQKIEMDKLEKAKKERTKIEFVTGTKKGTTTNATSTTTTTASTAVADAQKRKSKWDSAIPVTTIAQPTILTTTATLPAVVTVTTSASGSKTTVISAVGTIVKKAKQ [SAP30BP] | -0.0287 | 0.846 | 1.18 | 0.144 | 52.6 | 53.6 |
| MEEGGGGVRSLVPGGPVLLVLCGLLEASGGGRALPQLSDDIPFRVNWPGTEFSLPTTGVLYKEDNYVIMTTAHKEKYKCILPLVTSGDEEEEKDYKGPNPRELLEPLFKQSSCSYRIESYWTYEVCHGKHIRQYHEEKETGQKINIHEYYLGNMLAKNLLFEKEREAEEKEKSNEIPTKNIEGQMTPYYPVGMGNGTPCSLKQNRPRSSTVMYICHPESKHEILSVAEVTTCEYEVVILTPLLCSHPKYRFRASPVNDIFCQSLPGSPFKPLTLRQLEQQEEILRVPFRRNKEEDLQSTKEERFPAIHKSIAIGSQPVLTVGTTHISKLTDDQLIKEFLSGSYCFRGGVGWWKYEFCYGKHVHQYHEDKDSGKTSVVVGTWNQEEHIEWAKKNTARAYHLQDDGTQTVRMVSHFYGNGDICDITDKPRQVTVKLKCKESDSPHAVTVYMLEPHSCQYILGVESPVICKILDTADENGLLSLPN [ERLEC1] | -0.0947 | 1.6 | 0.429 | 0.0171 | 54.1 | 54 |
| MSESGHSQPGLYGIERRRRWKEPGSGGPQNLSGPGGRERDYIAPWERERRDASEETSTSVMQKTPIILSKPPAERSKQPPPPTAPAAPPAPAPLEKPIVLMKPREEGKGPVAVTGASTPEGTAPPPPAAPAPPKGEKEGQRPTQPVYQIQNRGMGTAAPAAMDPVVGQAKLLPPERMKHSIKLVDDQMNWCDSAIEYLLDQTDVLVVGVLGLQGTGKSMVMSLLSANTPEEDQRTYVFRAQSAEMKERGGNQTSGIDFFITQERIVFLDTQPILSPSILDHLINNDRKLPPEYNLPHTYVEMQSLQIAAFLFTVCHVVIVVQDWFTDLSLYRFLQTAEMVKPSTPSPSHESSSSSGSDEGTEYYPHLVFLQNKARREDFCPRKLRQMHLMIDQLMAHSHLRYKGTLSMLQCNVFPGLPPDFLDSEVNLFLVPFMDSEAESENPPRAGPGSSPLFSLLPGYRGHPSFQSLVSKLRSQVMSMARPQLSHTILTEKNWFHYAARIWDGVRKSSALAEYSRLLA [SMG9] | -0.178 | -0.759 | -0.639 | 0.242 | 49 | 49.8 |
| MAQKPLRLLACGDVEGKFDILFNRVQAIQKKSGNFDLLLCVGNFFGSTQDAEWEEYKTGIKKAPIQTYVLGANNQETVKYFQDADGCELAENITYLGRKGIFTGSSGLQIVYLSGTESLNEPVPGYSFSPKDVSSLRMMLCTTSQFKGVDILLTSPWPKCVGNFGNSSGEVDTKKCGSALVSSLATGLKPRYHFAALEKTYYERLPYRNHIILQENAQHATRFIALANVGNPEKKKYLYAFSIVPMKLMDAAELVKQPPDVTENPYRKSGQEASIGKQILAPVEESACQFFFDLNEKQGRKRSSTGRDSKSSPHPKQPRKPPQPPGPCWFCLASPEVEKHLVVNIGTHCYLALAKGGLSDDHVLILPIGHYQSVVELSAEVVEEVEKYKATLRRFFKSRGKWCVVFERNYKSHHLQLQVIPVPISCSTTDDIKDAFITQAQEQQIELLEIPEHSDIKQIAQPGAAYFYVELDTGEKLFHRIKKNFPLQFGREVLASEAILNVPDKSDWRQCQISKEDEETLARRFRKDFEPYDFTLDD [CWF19L1] | -0.143 | 0.0624 | 0.97 | 0.0176 | 50.4 | 50.7 |
| MDTDLYDEFGNYIGPELDSDEDDDELGRETKDLDEMDDDDDDDDVGDHDDDHPGMEVVLHEDKKYYPTAEEVYGPEVETIVQEEDTQPLTEPIIKPVKTKKFTLMEQTLPVTVYEMDFLADLMDNSELIRNVTLCGHLHHGKTCFVDCLIEQTHPEIRKRYDQDLCYTDILFTEQERGVGIKSTPVTVVLPDTKGKSYLFNIMDTPGHVNFSDEVTAGLRISDGVVLFIDAAEGVMLNTERLIKHAVQERLAVTVCINKIDRLILELKLPPTDAYYKLRHIVDEVNGLISMYSTDENLILSPLLGNVCFSSSQYSICFTLGSFAKIYADTFGDINYQEFAKRLWGDIYFNPKTRKFTKKAPTSSSQRSFVEFILEPLYKILAQVVGDVDTSLPRTLDELGIHLTKEELKLNIRPLLRLVCKKFFGEFTGFVDMCVQHIPSPKVGAKPKIEHTYTGGVDSDLGEAMSDCDPDGPLMCHTTKMYSTDDGVQFHAFGRVLSGTIHAGQPVKVLGENYTLEDEEDSQICTVGRLWISVARYHIEVNRVPAGNWVLIEGVDQPIVKTATITEPRGNEEAQIFRPLKFNTTSVIKIAVEPVNPSELPKMLDGLRKVNKSYPSLTTKVEESGEHVILGTGELYLDCVMHDLRKMYSEIDIKVADPVVTFCETVVETSSLKCFAETPNKKNKITMIAEPLEKGLAEDIENEVVQITWNRKKLGEFFQTKYDWDLLAARSIWAFGPDATGPNILVDDTLPSEVDKALLGSVKDSIVQGFQWGTREGPLCDELIRNVKFKILDAVVAQEPLHRGGGQIIPTARRVVYSAFLMATPRLMEPYYFVEVQAPADCVSAVYTVLARRRGHVTQDAPIPGSPLYTIKAFIPAIDSFGFETDLRTHTQGQAFSLSVFHHWQIVPGDPLDKSIVIRPLEPQPAPHLAREFMIKTRRRKGLSEDVSISKFFDDPMLLELAKQDVVLNYPM [EFTUD2] | 0.215 | -1.97 | -2.33 | -0.443 | 57.4 | 56.2 |
| MSETVICSSRATVMLYDDGNKRWLPAGTGPQAFSRVQIYHNPTANSFRVVGRKMQPDQQVVINCAIVRGVKYNQATPNFHQWRDARQVWGLNFGSKEDAAQFAAGMASALEALEGGGPPPPPALPTWSVPNGPSPEEVEQQKRQQPGPSEHIERRVSNAGGPPAPPAGGPPPPPGPPPPPGPPPPPGLPPSGVPAAAHGAGGGPPPAPPLPAAQGPGGGGAGAPGLAAAIAGAKLRKVSKQEEASGGPTAPKAESGRSGGGGLMEEMNAMLARRRKATQVGEKTPKDESANQEEPEARVPAQSESVRRPWEKNSTTLPRMKSSSSVTTSETQPCTPSSSDYSDLQRVKQELLEEVKKELQKVKEEIIEAFVQELRKRGSP [VASP] | 0.0947 | 0.605 | 2.18 | 0.466 | 49.7 | 50.4 |
| MADAAPQLGKRKRELDVEEAHAASTEEKEAGVGNGTCAPVRLPFSGFRLQKVLRESARDKIIFLHGKVNEASGDGDGEDAVVILEKTPFQVEQVAQLLTGSPELQLQFSNDIYSTYHLFPPRQLNDVKTTVVYPATEKHLQKYLRQDLRLIRETGDDYRNITLPHLESQSLSIQWVYNILDKKAEADRIVFENPDPSDGFVLIPDLKWNQQQLDDLYLIAICHRRGIRSLRDLTPEHLPLLRNILHQGQEAILQRYRMKGDHLRVYLHYLPSYYHLHVHFTALGFEAPGSGVERAHLLAEVIENLECDPRHYQQRTLTFALRADDPLLKLLQEAQQS [DCPS] | -0.0249 | -0.562 | -3.36 | 0.263 | 56.3 | 55.7 |
| STK38L | -0.074 | 0.62 | 1.53 | -0.0449 | 50.2 | 49.3 |
